Reference: doi:10.1101/2022.06.15.495552, “A network of DZF proteins controls alternative splicing regulation and fidelity”

Key:
ZFRlong;ILF2 (29-390) [1] = target: T1, ZFRlong;ILF2 (29-390) (human;human?, UniProt Q96KR1;Q12905 317-1074;29-390, |); assay: EMSA; 4 mM Mg2+; EMSA: 20 mM HEPES pH 7.5, 150 mM K acetate, 4 mM Mg acetate, 1 mM DTT, 0.5 uM nucleic acid, 1 h on ice; 8% native PAGE in 0.5x TBE at 4 C; conditions: protein: recombinant;recombinant, tags: N-terminal His6;N-terminal His6, copies: 1;1, blunt
T1 sequence (Q96KR1 317-1074, chain 1 of 2): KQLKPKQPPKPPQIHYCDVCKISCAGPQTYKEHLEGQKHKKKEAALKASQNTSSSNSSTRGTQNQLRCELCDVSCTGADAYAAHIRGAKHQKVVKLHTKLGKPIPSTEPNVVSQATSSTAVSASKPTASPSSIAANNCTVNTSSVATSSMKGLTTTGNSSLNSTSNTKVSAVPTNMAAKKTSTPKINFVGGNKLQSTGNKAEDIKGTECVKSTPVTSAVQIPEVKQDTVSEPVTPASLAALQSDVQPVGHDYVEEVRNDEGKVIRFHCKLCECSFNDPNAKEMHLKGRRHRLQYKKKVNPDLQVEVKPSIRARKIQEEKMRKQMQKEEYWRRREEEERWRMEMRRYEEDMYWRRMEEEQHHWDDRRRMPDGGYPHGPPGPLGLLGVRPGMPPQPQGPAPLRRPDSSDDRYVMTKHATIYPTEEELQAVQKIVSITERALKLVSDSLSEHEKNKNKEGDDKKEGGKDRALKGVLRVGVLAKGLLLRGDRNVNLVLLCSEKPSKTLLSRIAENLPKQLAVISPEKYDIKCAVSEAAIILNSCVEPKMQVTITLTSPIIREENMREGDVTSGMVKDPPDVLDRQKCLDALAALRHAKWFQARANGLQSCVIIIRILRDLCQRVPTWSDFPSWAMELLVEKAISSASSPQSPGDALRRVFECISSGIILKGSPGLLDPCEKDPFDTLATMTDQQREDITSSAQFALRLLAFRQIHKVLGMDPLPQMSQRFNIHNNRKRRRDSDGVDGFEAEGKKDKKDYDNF
T1 sequence (Q12905 29-390, chain 2 of 2): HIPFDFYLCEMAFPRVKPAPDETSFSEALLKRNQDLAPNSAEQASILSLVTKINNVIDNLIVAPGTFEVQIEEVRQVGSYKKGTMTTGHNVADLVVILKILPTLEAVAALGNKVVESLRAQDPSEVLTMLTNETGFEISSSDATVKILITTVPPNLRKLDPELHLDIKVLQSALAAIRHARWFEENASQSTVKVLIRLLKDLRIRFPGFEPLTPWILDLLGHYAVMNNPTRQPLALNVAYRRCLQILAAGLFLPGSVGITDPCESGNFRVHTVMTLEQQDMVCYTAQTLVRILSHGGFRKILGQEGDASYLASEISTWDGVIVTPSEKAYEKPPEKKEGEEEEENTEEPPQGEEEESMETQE

ZFRlong;ILF2 (29-390) [2] = target: T1, ZFRlong;ILF2 (29-390); assay: EMSA; 4 mM Mg2+; affinity similar to 24-mer dsRNA; EMSA: 20 mM HEPES pH 7.5, 150 mM K acetate, 4 mM Mg acetate, 1 mM DTT, 0.5 uM nucleic acid, 1 h on ice; 8% native PAGE in 0.5x TBE at 4 C; conditions: protein: recombinant;recombinant, tags: N-terminal His6;N-terminal His6, copies: 1;1, label: Cy5 on RNA strand (5' per Methods), RNA:DNA duplex
[3] = label: DY681 on strand 1 (5' per Methods)
[4] = label: Cy5 on strand 1 (5' per Methods)

Binder | Kd (ZFRlong;ILF2 (29-390) [1]; [3]) [nM] | Kd (ZFRlong;ILF2 (29-390) [1]; [4]) [nM] | other results
U-rich (AU-rich) 12-mer dsRNA, Zfr-RBNS3 (dsRNA) RNA 1: AAUGUUGUAAAA RNA 2: UUUUACAACAUU | ~800 | – | –
C-rich (GC-rich) 12-mer dsRNA, Zfr-RBNS1 (dsRNA) RNA 1: AAUGACACCCAA RNA 2: UUGGGUGUCAUU | ~800 | – | –
U-rich (AU-rich) 24-mer dsRNA, Zfr-RBNS3 (dsRNA) RNA 1: AAUGUUGUAAAAAAUGUUGUAAAA RNA 2: UUUUACAACAUUUUUUACAACAUU | – | ~300 | –
C-rich (GC-rich) 24-mer dsRNA, Zfr-RBNS1 (dsRNA) RNA 1: AAUGACACCCAAAAUGACACCCAA RNA 2: UUGGGUGUCAUUUUGGGUGUCAUU | – | ~300 | –
U-rich 24-mer RNA : A-rich DNA hybrid, Zfr-RBNS3 (DNA:RNA) RNA: AAUGUUGUAAAAAAUGUUGUAAAA DNA: TTTTACAACATTTTTACAACATT | – | – | binding result (ZFRlong;ILF2 (29-390) [2]; printed DNA 1 nt short): binds
C-rich 24-mer RNA : G-rich DNA hybrid, Zfr-RBNS1 (DNA:RNA) RNA: AAUGACACCCAAAAUGACACCCAA DNA: TTGGGTGTCATGGGTGTCAT | – | – | binding result (ZFRlong;ILF2 (29-390) [2]; printed DNA 4 nt short): binds
